Test system: Bacillus subtilis
Test: cleaved RNA product abundance (RNA/gDNA barcode ratio) relative to median wild-type variant (ratio to wild type); higher = more accumulation of the downstream cleavage product
Conditions: cleavage site: cggR-gapA (positions -7 to +36 mutated)
In short: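 Truncated aprE or tetM reporter mRNAs with barcoded RNase Y cleavage-site windows, mutagenized from oligos at a 9% error rate, sat in the B. subtilis chromosome. Cells grew in LB at 37°C from OD600 0.0003 to 0.3. Gel-selected cleaved RNA was reverse transcribed and its barcodes sequenced with those from genomic DNA, collapsing by UMI. Cleaved product abundance equals the RNA:gDNA barcode ratio per construct over the median construct with the unmutated site.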

[1] = experiment (reporter, strain, medium): exp 2b: truncated aprE reporter, strain BJT200
[2] = experiment (reporter, strain, medium): exp 4a: truncated aprE reporter, strain BJT201 with 2% xylose (RNase J1 expressed)
[3] = experiment (reporter, strain, medium): exp 6: tetM reporter, strain 168

| Sequence | cleaved RNA product abundance [1] | cleaved RNA product abundance [2] | cleaved RNA product abundance [3] |
| --- | --- | --- | --- |
| ACAGACGAAGGAGCCGCATAGAAGTTATTAAGTGATGAATAATCCCTCAATATAAATATCTCTCACTTATTTAAA | 0.121 | 0.0818 |  |
| ACAGACGAAGGAGCCGCATAGAAGTTATTAATGGATGAATAATCCCTCAATATAAATATCTCTCACTTATTTAAA | 0.142 | 0.214 |  |
| ACAGACGAAGGAGCCGCATAGAAGTTATTCAGGGATGAATAATCCCTCAATATAAATATCTCTCACTTATTTAAA |  | 0.947 |  |
| ACAGACGAAGGAGCCGCATAGAAGTTATTTAGGGATGAATAATCCCTCAATATAAATATCTCTCACTTATTTAAA |  | 0.962 |  |
| ACAGACGAAGGAGCCGCATAGAAGTTTTTAAGGGATGAATAATCCCTCAATATAAATATCTCTCACTTATTTAAA |  | 0.561 |  |
| ACAGACGAAGGAGCCGCATAGAATTTATTAAGGGATGAATAATCCCTCAATATAAATATCTCTCACTTATTTAAA | 0.76 | 0.514 |  |
| ACAGACGAAGGAGCCGCATAGATGTTATTAAGGGATGAATAATCCCTCAATATAAATATCTCTCACTTATTTAAA |  | 1.38 |  |
| ACAGACGAAGGAGCCGCATATAAGTTATTAATGGATGAATAATCCCTCAATATAAATATCTCTCACTTATTTAAA |  | 0.131 |  |
| ACAGACGAAGGAGCCGCCAAGAAATTATTAAGGGATGAATAATCCCTCAATATAAATATCTCTCACTTATTTAAA |  | 0.549 |  |
| ACAGACGAAGGAGCCGCCAAGAAGTAATTAAGGGATGAATAATCCCTCAATATAAATATCTCTCACTTATTTAAA |  | 0.375 |  |
| ACAGACGAAGGAGCCGCCAAGAAGTTATTAAAGGATGAATAATCCCTCAATATAAATATCTCTCACTTATTTAAA |  | 0.144 |  |
| ACAGACGAAGGAGCCGCCAAGAAGTTATTAACGGATGAATAATCCCTCAATATAAATATCTCTCACTTATTTAAA | 0.0909 |  |  |
| ACAGACGAAGGAGCCGCCAAGAAGTTATTAAGGAATGAATAATCCCTCAATATAAATATCTCTCACTTATTTAAA |  | 0.107 |  |
| ACAGACGAAGGAGCCGCCAAGAAGTTATTAAGGGATGAAAAATCCCTCAATATAAATATCTCTCACTTATTTAAA |  | 0.576 |  |
| ACAGACGAAGGAGCCGCCAAGAAGTTATTAAGGGATGAATAAACCCTCAATATAAATATCTCTCACTTATTTAAA |  | 0.471 |  |
| ACAGACGAAGGAGCCGCCAAGAAGTTATTAAGGGATGAATAATCACTCAATATAAATATCTCTCACTTATTTAAA |  | 0.102 |  |
| ACAGACGAAGGAGCCGCCAAGAAGTTATTAAGGGATGAATAATCCATCAATATAAATATCTCTCACTTATTTAAA |  | 0.327 |  |
| ACAGACGAAGGAGCCGCCAAGAAGTTATTAAGGGATGAATAATCCCTCAATATAAATATCTCTCACTTATTTAAA | 0.985 | 0.872 |  |
| ACAGACGAAGGAGCCGCCAAGAAGTTATTAAGGGATGAATAATCCCTCACTATAAATATCTCTCACTTATTTAAA | 0.191 |  |  |

| Sequence | cleaved RNA product abundance [1] | cleaved RNA product abundance [2] | cleaved RNA product abundance [3] |
| --- | --- | --- | --- |
| ACAGACGAAGGAGCCGCCAAGAAGTTATTAAGGGATGAATAATCCCTTAATATAAATATCTCTCACTTATTTAAA | 0.21 | 0.305 |  |
| ACAGACGAAGGAGCCGCCAAGAAGTTATTAAGGGATGAATAATCCTTCAATATAAATATCTCTCACTTATTTAAA | 0.518 | 0.531 |  |
| ACAGACGAAGGAGCCGCCAAGAAGTTATTAAGGGATTAATAATCCCTCAATATAAATATCTCTCACTTATTTAAA |  | 0.726 |  |
| ACAGACGAAGGAGCCGCCAAGAAGTTATTAAGGTATGAATAATCCCTCAATATAAATATCTCTCACTTATTTAAA |  | 0.103 |  |
| ACAGACGAAGGAGCCGCCAAGAAGTTATTAAGTGATGAATAATCCCTCAATATAAATATCTCTCACTTATTTAAA |  | 0.146 |  |
| ACAGACGAAGGAGCCGCCAAGAAGTTATTCAGGGATGAATAATCCCTCAATATAAATATCTCTCACTTATTTAAA |  | 0.506 |  |
| ACAGACGAAGGAGCCGCCAAGATGTTATTAAGGGATGAATAATCCCTCAATATAAATATCTCTCACTTATTTAAA |  | 0.894 |  |
| ACAGACGAAGGAGCCGCCAATAAGTTATTAAGGGATGAATAATCCCTCAATATAAATATCTCTCACTTATTTAAA |  | 0.812 |  |
| ACAGACGAAGGAGCCGCGAAGAACTTATTAAGGGATGAATAATCCCTCAATATAAATATCTCTCACTTATTTAAA |  | 0.252 |  |
| ACAGACGAAGGAGCCGCGAAGAAGTAATTAAGGGATGAATAATCCCTCAATATAAATATCTCTCACTTATTTAAA | 0.178 |  |  |
| ACAGACGAAGGAGCCGCGAAGAAGTGATTAAGGGATGAATAATCCCTCAATATAAATATCTCTCACTTATTTAAA |  | 0.347 |  |
| ACAGACGAAGGAGCCGCGAAGAAGTTAATAAGGGATGAATAATCCCTCAATATAAATATCTCTCACTTATTTAAA |  | 0.31 |  |
| ACAGACGAAGGAGCCGCGAAGAAGTTATGAAGGGATGAATAATCCCTCAATATAAATATCTCTCACTTATTTAAA |  | 0.248 |  |
| ACAGACGAAGGAGCCGCGAAGAAGTTATTAAAGGATGAATAATCCCTCAATATAAATATCTCTCACTTATTTAAA |  | 0.258 |  |
| ACAGACGAAGGAGCCGCGAAGAAGTTATTAACGGATGAATAATCCCTCAATATAAATATCTCTCACTTATTTAAA | 0.164 | 0.185 |  |
| ACAGACGAAGGAGCCGCGAAGAAGTTATTAAGAGATGAATAATCCCTCAATATAAATATCTCTCACTTATTTAAA | 0.114 | 0.108 |  |
| ACAGACGAAGGAGCCGCGAAGAAGTTATTAAGGAATGAATAATCCCTCAATATAAATATCTCTCACTTATTTAAA |  |  | 0.104 |
| ACAGACGAAGGAGCCGCGAAGAAGTTATTAAGGCATGAATAATCCCTCAATATAAATATCTCTCACTTATTTAAA | 0.0773 |  |  |
| ACAGACGAAGGAGCCGCGAAGAAGTTATTAAGGGATAAATAATCCCTCAATATAAATATCTCTCACTTATTTAAA |  | 0.679 |  |

| Sequence | cleaved RNA product abundance [1] | cleaved RNA product abundance [2] | cleaved RNA product abundance [3] |
| --- | --- | --- | --- |
| ACAGACGAAGGAGCCGCGAAGAAGTTATTAAGGGATCAATAATCCCTCAATATAAATATCTCTCACTTATTTAAA |  | 0.762 |  |
| ACAGACGAAGGAGCCGCGAAGAAGTTATTAAGGGATGAATAAACCCTCAATATAAATATCTCTCACTTATTTAAA |  | 0.467 |  |
| ACAGACGAAGGAGCCGCGAAGAAGTTATTAAGGGATGAATAATACCTCAATATAAATATCTCTCACTTATTTAAA |  | 0.117 |  |
| ACAGACGAAGGAGCCGCGAAGAAGTTATTAAGGGATGAATAATCACTCAATATAAATATCTCTCACTTATTTAAA |  | 0.122 |  |
| ACAGACGAAGGAGCCGCGAAGAAGTTATTAAGGGATGAATAATCCCACAATATAAATATCTCTCACTTATTTAAA | 0.17 | 0.227 |  |
| ACAGACGAAGGAGCCGCGAAGAAGTTATTAAGGGATGAATAATCCCTCAAAATAAATATCTCTCACTTATTTAAA |  | 0.319 |  |
| ACAGACGAAGGAGCCGCGAAGAAGTTATTAAGGGATGAATAATCCCTCAATATAAATAACTCTCACTTATTTAAA | 1.05 | 0.969 |  |
| ACAGACGAAGGAGCCGCGAAGAAGTTATTAAGGGATGAATAATCCCTCAATATAAATATCTCTCACTTATTTAAA | 0.919 | 0.87 | 0.885 |
| ACAGACGAAGGAGCCGCGAAGAAGTTATTAAGGGATGAATAATCCGTCAATATAAATATCTCTCACTTATTTAAA | 0.145 |  |  |
| ACAGACGAAGGAGCCGCGAAGAAGTTATTAAGGGATGAATAATCGCTCAATATAAATATCTCTCACTTATTTAAA |  | 0.134 |  |
| ACAGACGAAGGAGCCGCGAAGAAGTTATTAAGGGATGAATAATCTCTCAATATAAATATCTCTCACTTATTTAAA |  | 0.671 |  |
| ACAGACGAAGGAGCCGCGAAGAAGTTATTAAGGGATGAATAATTCCTCAATATAAATATCTCTCACTTATTTAAA |  | 0.684 |  |
| ACAGACGAAGGAGCCGCGAAGAAGTTATTAAGGGATGAATACTCCCTCAATATAAATATCTCTCACTTATTTAAA |  | 0.528 |  |
| ACAGACGAAGGAGCCGCGAAGAAGTTATTAAGGGATGAATTATCCCTCAATATAAATATCTCTCACTTATTTAAA |  | 0.548 |  |
| ACAGACGAAGGAGCCGCGAAGAAGTTATTAAGGGATTAATAATCCCTCAATATAAATATCTCTCACTTATTTAAA |  | 1.19 |  |
| ACAGACGAAGGAGCCGCGAAGAAGTTATTAAGGTATGAATAATCCCTCAATATAAATATCTCTCACTTATTTAAA | 0.117 | 0.143 |  |
| ACAGACGAAGGAGCCGCGAAGAAGTTATTAATGGATGAATAATCCCTCAATATAAATATCTCTCACTTATTTAAA |  | 0.214 |  |
| ACAGACGAAGGAGCCGCGAAGAAGTTATTATGGGATGAATAATCCCTCAATATAAATATCTCTCACTTATTTAAA |  | 0.357 |  |

Source: the supplement of paper PMC11780869
